Residue numbers refer to the chain shown, from its start.

Test [1] has as its target T1, human CD16a (158V), full length, on cells (human, UniProt P08637 17-254). The test can be described thus: cell-based or functional assay.
Target sequence in this assay (P08637 17-254 F176V limits assumed): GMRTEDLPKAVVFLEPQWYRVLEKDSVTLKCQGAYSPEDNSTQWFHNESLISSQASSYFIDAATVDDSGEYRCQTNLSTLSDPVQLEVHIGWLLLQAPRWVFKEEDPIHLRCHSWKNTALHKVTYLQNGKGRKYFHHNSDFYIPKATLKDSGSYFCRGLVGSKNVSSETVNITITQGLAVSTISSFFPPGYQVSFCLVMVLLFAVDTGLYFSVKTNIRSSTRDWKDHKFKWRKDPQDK
Test [2] addresses T2, Human CD16a (158F)-his (human).
T2 construct: entry holds ECD, AVI tag, linker and His tag
The test can be described thus: SPR (Biacore), antibody captured on Protein A. The gist of the method:
(§1)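 Protein A–captured antibody was probed with CD16-his ECD in HBS-EP+ at 25 °C: five 2-fold dilutions from 200 nM, 240 s at 30 μL/min, dissociation up to 600 s. Glycine pH 1.5 regenerated the chip. Apparent KD came from a double-referenced 1:1 Langmuir fit.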

In test [3] the target is T3, Human CD16a (158V)-his (human).
T3 construct: entry holds ECD, AVI tag, linker and His tag
Kind of test: SPR (Biacore), antibody captured on Protein A. The gist of the method: as §1

Test [4] deals with T4, Human CD16b (NA1)-his (human).
T4 construct: entry holds ECD, linker, His tag and AVI tag
T4 chain: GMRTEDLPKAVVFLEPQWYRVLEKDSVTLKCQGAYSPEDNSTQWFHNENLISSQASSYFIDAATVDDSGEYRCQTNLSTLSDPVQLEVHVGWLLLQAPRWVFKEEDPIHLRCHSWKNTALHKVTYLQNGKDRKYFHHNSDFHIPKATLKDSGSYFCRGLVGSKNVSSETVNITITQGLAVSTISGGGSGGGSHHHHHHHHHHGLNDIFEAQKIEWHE
The test can be described thus: SPR (Biacore), antibody captured on Protein A. The method, boiled down: as §1

Test [5] concerns the target T5, human CD16b (NA2), full length, on FlpinCHO cells (human, UniProt O75015 17-200).
T5 construct: also called FlpinCHO-human CD16b (NA2)
T5 chain: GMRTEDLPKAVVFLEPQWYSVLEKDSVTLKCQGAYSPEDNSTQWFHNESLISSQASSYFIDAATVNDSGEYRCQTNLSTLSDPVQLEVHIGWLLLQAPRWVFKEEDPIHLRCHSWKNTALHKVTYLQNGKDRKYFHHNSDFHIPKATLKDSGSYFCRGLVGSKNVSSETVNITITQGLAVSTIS
The test can be described thus: FACS on FlpinCHO cells. The method, boiled down:
(§2)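 Trypsin-detached FlpinCHO cells expressing full-length CD16b were blocked in PBS+2% BSA and incubated on ice for 1 hour with antibody at varying concentrations. Binding read by flow cytometry as MFI; EC50 from curve fitting.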

Test [6] concerns the target T6, human CD16b (NA1), full length, on FlpinCHO cells (human, UniProt O75015 17-200).
T6 construct: also called FlpinCHO-human CD16b (NA1)
T6 chain: T5 chain with S20R, S49N, N66D, I90V
Kind of test: FACS on FlpinCHO cells. The gist of the method:
as §2

Test [7] addresses human CD16a (158F), full length, on FlpinCHO cells (human, UniProt P08637 17-254). Kind of test: FACS on FlpinCHO cells. The method, boiled down: (§3)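 Trypsinised cells in PBS + 2% BSA were incubated on ice for 1 hour with antibody at a range of concentrations. After washes, mean fluorescence intensity was read by flow cytometry. EC50 values were derived by curve fitting of MFI.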

For test [8], the target named is T1, human CD16a (158V), full length, on …. Kind of test: FACS on FlpinCHO cells. The method, boiled down:
as §3

B1: VHH11 VHH-Fc antibody (Fc fusion)
chain: EVQVVESGGGLAQAGGSLRLSCAVSGITFSSYAMGWYRQDPGKQRELVAAINRFGLTNYADSVKGRFTISRDNAKNTVYLQMTSLKPEDTAVYYCNTGGVYSHPNYYTGTYWGQGTQVTVSSEPKSSDKTHTCPPCPAPEFEGGPSVFLFPPKPKDTLMISRTPEVTCVVVAVSHEDPEVKFNWYVDGVEVHNAKTKPREEQYNSTYRVVSVLTVLHQDWLNGKEYKCKVSNKALPAPIEKTISKAKGQPREPQVYTLPPSREEMTKNQVSLTCLVKGFYPSDIAVEWESNGQPENNYKTTPPVLDSDGSFFLYSKLTVDKSRWQQGNVFSCSVMHEALHNHYTQKSLSLSPGK
As for B1, in test [1], the “EC50, activation activity for Jurkat cell” value (from here on “EC50, activation activity”) is 0.03 nM. The molecule also showed a Maximum fluorescence value in test [1] of 166000. The equilibrium dissociation constant (Kd) in test [2] turned out to be 42.9 nM; in test [3], 32 nM; in test [4] it was 6010 nM. In addition, the koff in test [2] came to 0.0235 s⁻¹; in test [3], 0.0491 s⁻¹; in test [4], 0.259 s⁻¹. For the same molecule, the kon in test [2] was 548000 M⁻¹ s⁻¹; in test [3], 1.53e+06 M⁻¹ s⁻¹; in test [4], 43100 M⁻¹ s⁻¹. Further, the EC50 in test [5] is 1.43 nM; in test [6], 1.03 nM; in test [7] it was 0.28 nM; in test [8], 0.33 nM. The “Maximum mean fluorescence intensity” value in test [5] came out at 56900; in test [6] it was 37900; in test [7], 5670; in test [8], 6240.

B2: VHH12 VHH-Fc antibody (Fc fusion)
chain: B1 chain with E1Q, V4L, A12V, V24A, D40A, S62F, D72V, N105D
Regarding B2, the “EC50, activation activity” value in test [1] came out at 0.02 nM. The Maximum fluorescence value in test [1] was found to be 165000. Further, the Kd in test [2] is 13.3 nM; in test [3], 10.8 nM; in test [4], 1500 nM. Besides, the koff in test [2] stood at 0.0117 s⁻¹; in test [3], 0.0201 s⁻¹; in test [4], 0.154 s⁻¹. For the same molecule, the kon in test [2] is 878000 M⁻¹ s⁻¹; in test [3], 1.86e+06 M⁻¹ s⁻¹; in test [4], 103000 M⁻¹ s⁻¹. In addition, the EC50 in test [5] came to 0.96 nM; in test [6], 0.62 nM; in test [7], 0.16 nM; in test [8] it was 0.21 nM. Further, the “Maximum mean fluorescence intensity” value in test [5] was 79100; in test [6], 58100; in test [7], 6090; in test [8], 6680.

B3: VHH06 VHH-Fc antibody (Fc fusion)
chain: EVQLVESGGGLVQAGGSLRLSCVASGSTWTTYAVRWYRQAPGKQREWVAFISVDGSTNYPDSVKGRFIVSRDNAKNTVYLQMNSLKPEDTADYICRVGGQYWGQGTQVTVSSEPKSSDKTHTCPPCPAPEFEGGPSVFLFPPKPKDTLMISRTPEVTCVVVAVSHEDPEVKFNWYVDGVEVHNAKTKPREEQYNSTYRVVSVLTVLHQDWLNGKEYKCKVSNKALPAPIEKTISKAKGQPREPQVYTLPPSREEMTKNQVSLTCLVKGFYPSDIAVEWESNGQPENNYKTTPPVLDSDGSFFLYSKLTVDKSRWQQGNVFSCSVMHEALHNHYTQKSLSLSPGK
On to B3, for which, in test [1], the “EC50, activation activity” value came to 0.04 nM. Moreover, in test [1], the Maximum fluorescence value stood at 169000. Moreover, the Kd in test [2] turned out to be 5.84 nM; in test [3], 1.96 nM; in test [4] it was 8.63 nM. Besides, the koff was 0.000374 s⁻¹ in test [2], 0.000213 s⁻¹ in test [3] and 0.00113 s⁻¹ in test [4]. Besides, the kon was found to be 64000 M⁻¹ s⁻¹ in test [2], 109000 M⁻¹ s⁻¹ in test [3] and 130000 M⁻¹ s⁻¹ in test [4]. Also, the “Maximum mean fluorescence intensity” value was found to be 1930 in test [5], 33300 in test [6], 7070 in test [7] and 8110 in test [8]. Further, the binding result in test [5] is reported as “no binding (tested: 100 nM)”. Besides, the EC50 in test [6] was determined as 1.41 nM; in test [7] it was 0.58 nM; in test [8], 0.66 nM.

Values taken from patent US20240343811A1 (SHANDONG SIMCERE BIOPHARMACUTICAL, published 2024).
